Format in all cases: cell-based
For one assay, the system named is E. coli. The experiment in a line: Heterologous expression of 8456_orf880 in E. coli with fatty acid feeding. The method, then:
ATCC 8456 cells were grown in 15 mL TSBYE medium (3% Tryptic Soy Broth+0.5% Yeast Extract). Fatty acids were added to the culture medium at final concentrations of 0.5 g/l (0.05%). After growth for 40-48 h at 30° C., cells from 5 mL of culture were pelleted, resuspended in 1 mL methanol, sonicated for 30 min, and extracted with 4 mL hexane. After solvent evaporation, samples were resuspended in 0.1 mL hexane and analyzed by GC-MS.
Jeotgalicoccus ATCC 8456 ORF880 was identified as one of the two major proteins in a highly purified enzyme fraction that catalyzed the conversion of free fatty acids to α-olefins. The genomic DNA encoding ATCC 8456_orf880 was cloned into pCDF-Duet1 under the control of the T7 promoter, and E. coli was transformed with various vectors, as described below. The E. coli cells were grown, and the hydrocarbons produced by the cells were analyzed as described in Example 2. When 0.05% stearic acid was fed to cultures of E. coli transformed with the 8456_orf880-containing vector, the expression of 8456_orf880 led to the formation of 1-heptadecene in E. coli (see FIG. 8, depicting GC/MS traces of α-olefins from E. coli either without (black) or with (gray) expression of 8456_orf880). […] Additionally, when E. coli cells expressing 8456_orf880 protein were fed with 0.05% palmitic acid or 0.05% eicosanoic acid, the production of 1-pentadecene or 1-nonadecene, respectively, was observed.

A further assay concerns E. coli MG1655 ΔfadD. Briefly: α-Olefins from glucose by expression of orf880 in E. coli MG1655 ΔfadD. To be noted: glucose (1%, w/v) only carbon source, versus vector-only control. The method, then:
The genomic DNA encoding ATCC 8456_orf880, which was codon-optimized for expression in E. coli (SEQ ID NO:4), was cloned into vector OP80 (pCL1920 derivative) under the control of the Ptrc promoter, and E. coli MG1655 ΔfadD was transformed with the resulting vector. The E. coli cells were grown at 37° C. in M9 mineral medium supplemented with 20 μg/mL uracil and 100 μg/mL spectinomycin. Glucose (1%, w/v) was the only source of carbon and energy. When the culture reached an OD600 of 0.8 to 1.0, IPTG (1 mM) and 0.5 mM delta-aminolaevulinic acid (heme biosynthesis precursor) were added. The temperature was shifted to 25° C. After growth for an additional 18 to 24 h at 25° C., the cells from 10 mL of culture were pelleted, resuspended in 1 mL methanol, sonicated for 30 min, and extracted with 4 mL hexane. After solvent evaporation, the samples were resuspended in 0.1 mL hexane and analyzed by GC-MS.

In a further assay the test system is B. subtilis IHA01. Briefly: α-Olefin production in Bacillus subtilis by heterologous expression. To be noted: 0.05% stearic acid, versus vector only control. On the procedure:
Genomic DNA encoding Jeotgalicoccus ATCC 8456_orf880 was cloned into the BamHI and XbaI sites of vector pHT01 under the control of the Pgrac promoter. B. subtilis IHA01 (lacA::spec leuB8 metB5 r(−)m(+) Sp, obtained from Bacillus Genetic Stock Center, Columbus, Ohio, strain number BGSC 1A785) was transformed with the resulting vector. The B. subtilis cells were grown at 37° C. in minimal medium supplemented with 2% glucose, 0.3 mM leucine, 0.3 mM methionine, and 10 mg/L chloramphenicol. When the cultures reached an OD600 of 0.8 to 1.0, 1 mM IPTG was added (to induce expression of orf880) along with 0.5 mM 5-amino laevulinic acid (as a precursor for heme biosynthesis) and 0.05% stearic acid (as a substrate for ORF880). The temperature was shifted to 25° C. and after growth for additional 18-24 h at 25° C., cells from a 1 mL culture were pelleted, resuspended in 100 μL methanol, sonicated for 1 h, and extracted with 300 μL ethyl acetate. 300 μL of water was added before separating the organic layer by centrifugation at 15,000 rpm for 5 min. The solvent layer was analyzed by GC-MS.
Genomic DNA encoding Corynebacterium efficiens YS-134 orfCE2459 was cloned into the BamHI and XbaI sites of vector pHT01 under the control of the Pgrac promoter and transformed into B. subtilis IHA01 cells. The resulting cells were grown, extracted, and analyzed as described in Example 9.

Assay [1] concerns S. cerevisiae (BY4741) yeast cells. The experiment in a line: α-Olefin production in Saccharomyces cerevisiae by heterologous expression of orf880. The note with it: expressed in S. cerevisiae. On the procedure:
Genomic DNA encoding Jeotgalicoccus sp. ATCC 8456_orf880 is cloned into the ApaI and XhoI sites of the yeast expression vector pESC-His. S. cerevisiae (BY4741) yeast cells are then transformed with either a plasmid containing orf880 or a plasmid not containing orf880. The transformed yeast cells are cultured under suitable conditions to allow expression of ORF880. The cells are pelleted and then lysed using YeastBuster™ (Novagen, Madison, Wis.). The α-olefins are extracted and analyzed as described in Examples 6 and 7.

B1: ORF880: olefin-producing enzyme (fatty acid decarboxylase) from Jeotgalicoccus sp. ATCC 8456, SEQ ID NO:2 (protein)
chain: MATLKRDKGLDNTLKVLKQGYLYTTNQRNRLNTSVFQTKALGGKPFVVVTGKEGAEMFYNNDVVQREGMLPKRIVNTLFGKGAIHTVDGKKHVDRKALFMSLMTEGNLNYVRELTRTLWHANTQRMESMDEVNIYRESIVLLTKVGTRWAGVQAPPEDIERIATDMDIMIDSFRALGGAFKGYKASKEARRRVEDWLEEQIIETRKGNIHPPEGTALYEFAHWEDYLGNPMDSRTCAIDLMNTFRPLIAINRFVSFGLHAMNENPITREKIKSEPDYAYKFAQEVRRYYPFVPFLPGKAKVDIDFQGVTIPAGVGLALDVYGTTHDESLWDDPNEFRPERFETWDGSPFDLIPQGGGDYWTNHRCAGEWITVIIMEETMKYFAEKITYDVPEQDLEVDLNSIPGYVKSGFVIKNVREVVDRT
modifications: Jeotgalicoccus sp. ATCC8456
For B1, the α-olefin produced is listed as 1-nonadecene in the assay on E. coli (0.05% eicosanoic acid fed), 1-pentadecene in the assay with E. coli (0.05% palmitic acid fed) and 1-heptadecene in the assay on E. coli (0.05% stearic acid fed). Moreover, in the assay with E. coli MG1655 ΔfadD, the α-olefins produced is 1-pentadecene and heptadecadiene. Moreover, the “α-olefin produced from stearic acid” value in the assay on B. subtilis IHA01 is listed as 1-heptadecene. Moreover, in assay [1], the α-olefin production result is recorded as “produces α-olefins”.

These data come from patent publication US8597922B2, “Methods and compositions for producing olefins” (LS9, Inc., priority 2007, dated 2013).
